In the supplement of paper PMC9112550, “Optimization of the antimicrobial peptide Bac7 by deep mutational scanning” (BMC Biology, 2022):

Tested on: Escherichia coli TOP10
Assay: shrunken log2 fold change of peptide-encoding DNA abundance (4.5 h post-induction vs induction); higher = less antimicrobial activity (less host growth inhibition)
Details: time post-induction: 4.5 h; library: site-saturation at positions 5, 18, 19, 20
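Note: peptides expressed intracellularly from a pBAD plasmid library in pooled LB shake-flask culture, induced with 0.3% L-arabinose, DNA abundance read by NGS, three biological replicates, DESeq2 with apeglm shrinkage.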

| Sequence | shrunken log2 fold change |
| --- | --- |
| RRIRSRPPRLPRPRPRPLSWPRP | 0.239 |
| RRIRHRPPRLPRPRPRPSTVPRP | 0.00256 |
| RRIRSRPPRLPRPRPRPICHPRP | -0.179 |
| RRIRRRPPRLPRPRPRPEKEPRP | 0.224 |
| RRIRIRPPRLPRPRPRPEMIPRP | -0.0257 |
| RRIRFRPPRLPRPRPRPNNNPRP | -0.714 |
| RRIRDRPPRLPRPRPRPEIQPRP | 0.7 |
| RRIRLRPPRLPRPRPRPILQPRP | -0.129 |
| RRIRPRPPRLPRPRPRPLPPPRP | 0.36 |
| RRIRWRPPRLPRPRPRPCDKPRP | -0.217 |
| RRIRPRPPRLPRPRPRPLPVPRP | -0.4 |
| RRIRTRPPRLPRPRPRPHRFPRP | -0.0213 |
| RRIRLRPPRLPRPRPRPEIRPRP | -0.0685 |
| RRIRIRPPRLPRPRPRPEAEPRP | 0.677 |
| RRIRDRPPRLPRPRPRPERWPRP | 1.3 |
| RRIRYRPPRLPRPRPRPSVFPRP | -0.219 |
| RRIRRRPPRLPRPRPRPMALPRP | 5.63e-05 |
| RRIRMRPPRLPRPRPRPQSWPRP | 0.141 |
| RRIRARPPRLPRPRPRPQCGPRP | 0.436 |
| RRIRRRPPRLPRPRPRPVPVPRP | 0.128 |
| RRIRWRPPRLPRPRPRPYRVPRP | 0.00439 |
| RRIRGRPPRLPRPRPRPVDMPRP | 0.255 |
| RRIRHRPPRLPRPRPRPCMLPRP | -0.151 |
| RRIRNRPPRLPRPRPRPGVIPRP | 0.208 |
| RRIRDRPPRLPRPRPRPIIAPRP | 0.0706 |

| Sequence | shrunken log2 fold change |
| --- | --- |
| RRIRQRPPRLPRPRPRPLNVPRP | -0.0218 |
| RRIRKRPPRLPRPRPRPMDCPRP | 0.0101 |
| RRIRLRPPRLPRPRPRPSFFPRP | -0.207 |
| RRIRERPPRLPRPRPRPMEYPRP | -0.00776 |
| RRIRFRPPRLPRPRPRPEPRPRP | 0.81 |
| RRIRWRPPRLPRPRPRPNMYPRP | -0.436 |
| RRIRNRPPRLPRPRPRPDQHPRP | -0.34 |
| RRIRYRPPRLPRPRPRPCTEPRP | -0.531 |
| RRIRLRPPRLPRPRPRPKPYPRP | 0.00713 |
| RRIRNRPPRLPRPRPRPICVPRP | 0.111 |
| RRIRARPPRLPRPRPRPYLIPRP | -0.659 |
| RRIRFRPPRLPRPRPRPDEMPRP | -0.0134 |
| RRIRMRPPRLPRPRPRPEGQPRP | -0.00185 |
| RRIRTRPPRLPRPRPRPIWMPRP | -0.101 |
| RRIRSRPPRLPRPRPRPQMWPRP | 0.0996 |
| RRIRKRPPRLPRPRPRPPVPPRP | 0.794 |
| RRIRIRPPRLPRPRPRPSMIPRP | -0.458 |
| RRIRPRPPRLPRPRPRPMHIPRP | -0.105 |
| RRIRKRPPRLPRPRPRPPGNPRP | 0.712 |
| RRIRKRPPRLPRPRPRPAKYPRP | 0.0456 |
| RRIRGRPPRLPRPRPRPMPVPRP | 0.447 |
| RRIRDRPPRLPRPRPRPIPQPRP | -0.0127 |
| RRIRCRPPRLPRPRPRPADMPRP | -0.115 |
| RRIRNRPPRLPRPRPRPDTNPRP | -0.141 |
| RRIRDRPPRLPRPRPRPTMSPRP | 0.0526 |

| Sequence | shrunken log2 fold change |
| --- | --- |
| RRIRQRPPRLPRPRPRPNQQPRP | -0.0802 |
| RRIRGRPPRLPRPRPRPWIMPRP | -0.209 |
| RRIRKRPPRLPRPRPRPRACPRP | 0.474 |
| RRIRCRPPRLPRPRPRPKVYPRP | -0.167 |
| RRIRRRPPRLPRPRPRPVHWPRP | 0.00204 |
| RRIRPRPPRLPRPRPRPYRWPRP | 0.087 |
| RRIRRRPPRLPRPRPRPVVSPRP | 0.132 |
| RRIRERPPRLPRPRPRPMFDPRP | -0.121 |
| RRIRCRPPRLPRPRPRPIAYPRP | -0.113 |
| RRIRWRPPRLPRPRPRPCHDPRP | 0.0415 |
| RRIRTRPPRLPRPRPRPDMRPRP | -0.025 |
| RRIRNRPPRLPRPRPRPQDFPRP | -0.0385 |
| RRIRERPPRLPRPRPRPKRYPRP | -0.051 |
| RRIRHRPPRLPRPRPRPIKWPRP | 0.126 |
| RRIRKRPPRLPRPRPRPSYIPRP | -0.136 |
| RRIRTRPPRLPRPRPRPDQDPRP | -0.0328 |
| RRIRGRPPRLPRPRPRPTSFPRP | 0.449 |
| RRIRDRPPRLPRPRPRPWCEPRP | -0.093 |
| RRIRFRPPRLPRPRPRPCGGPRP | 0.12 |
| RRIRHRPPRLPRPRPRPYSSPRP | -0.0579 |
| RRIRERPPRLPRPRPRPTKPPRP | -0.394 |
| RRIRQRPPRLPRPRPRPDMIPRP | -0.303 |
| RRIRHRPPRLPRPRPRPHWHPRP | -0.25 |
| RRIRNRPPRLPRPRPRPPVGPRP | 0.444 |
| RRIRNRPPRLPRPRPRPGCCPRP | -0.0641 |

| Sequence | shrunken log2 fold change |
| --- | --- |
| RRIRLRPPRLPRPRPRPLPMPRP | 0.0573 |
| RRIRFRPPRLPRPRPRPENWPRP | 0.0986 |
| RRIRARPPRLPRPRPRPKVWPRP | 0.766 |
| RRIRLRPPRLPRPRPRPKDAPRP | -0.11 |
| RRIRVRPPRLPRPRPRPHEMPRP | -0.058 |
| RRIRDRPPRLPRPRPRPHFIPRP | -0.0922 |
| RRIRFRPPRLPRPRPRPYSVPRP | 0.062 |
| RRIRARPPRLPRPRPRPSSSPRP | 0.185 |
| RRIRWRPPRLPRPRPRPTHQPRP | -0.0304 |
| RRIRMRPPRLPRPRPRPAYCPRP | 0.075 |
| RRIRHRPPRLPRPRPRPGNKPRP | -0.089 |
| RRIRSRPPRLPRPRPRPFSPPRP | -0.195 |
| RRIRFRPPRLPRPRPRPGNVPRP | 0.0145 |
| RRIRFRPPRLPRPRPRPKVKPRP | 0.0668 |
| RRIRPRPPRLPRPRPRPWVQPRP | 0.0127 |
| RRIRERPPRLPRPRPRPNHEPRP | 0.0522 |
| RRIRCRPPRLPRPRPRPCSMPRP | -0.0191 |
| RRIRYRPPRLPRPRPRPGDGPRP | 0.0695 |
| RRIRCRPPRLPRPRPRPEHMPRP | -0.201 |
| RRIRRRPPRLPRPRPRPNKWPRP | 0.0315 |
| RRIRCRPPRLPRPRPRPDWSPRP | 0.0534 |
| RRIRQRPPRLPRPRPRPDSIPRP | -0.00697 |
| RRIRARPPRLPRPRPRPFLDPRP | 0.116 |
| RRIRVRPPRLPRPRPRPPCYPRP | -0.356 |
| RRIRNRPPRLPRPRPRPDQDPRP | -0.00104 |

| Sequence | shrunken log2 fold change |
| --- | --- |
| RRIRCRPPRLPRPRPRPMHHPRP | -0.796 |
| RRIRTRPPRLPRPRPRPFIVPRP | -0.265 |
| RRIRVRPPRLPRPRPRPPSVPRP | 0.129 |
| RRIRRRPPRLPRPRPRPFCGPRP | 0.143 |
| RRIRSRPPRLPRPRPRPITVPRP | -0.132 |
| RRIRMRPPRLPRPRPRPNMSPRP | 0.0106 |
| RRIRDRPPRLPRPRPRPEQRPRP | 0.0765 |
| RRIRCRPPRLPRPRPRPRASPRP | 0.282 |
| RRIRDRPPRLPRPRPRPYYLPRP | -0.134 |
| RRIRCRPPRLPRPRPRPHNIPRP | -0.898 |
| RRIRIRPPRLPRPRPRPNKPPRP | -0.119 |
| RRIRTRPPRLPRPRPRPQHNPRP | -0.324 |
| RRIRDRPPRLPRPRPRPICMPRP | -0.00256 |
| RRIRPRPPRLPRPRPRPIVGPRP | -0.00131 |
| RRIRLRPPRLPRPRPRPAQEPRP | -0.023 |
| RRIRCRPPRLPRPRPRPLVLPRP | -0.378 |
| RRIRMRPPRLPRPRPRPCQTPRP | 0.0245 |
| RRIRKRPPRLPRPRPRPGNEPRP | 0.204 |
| RRIRARPPRLPRPRPRPAGWPRP | 1.56 |
| RRIRFRPPRLPRPRPRPCICPRP | -0.136 |
| RRIRGRPPRLPRPRPRPARTPRP | 0.545 |
| RRIRARPPRLPRPRPRPFDMPRP | 0.0608 |
| RRIRMRPPRLPRPRPRPWRSPRP | 0.166 |
| RRIRVRPPRLPRPRPRPQCRPRP | -0.167 |
| RRIRARPPRLPRPRPRPAVFPRP | 0.679 |

| Sequence | shrunken log2 fold change |
| --- | --- |
| RRIRLRPPRLPRPRPRPNARPRP | 0.1 |
| RRIRYRPPRLPRPRPRPCWRPRP | -0.138 |
| RRIRYRPPRLPRPRPRPHPWPRP | -0.542 |
| RRIRRRPPRLPRPRPRPHDHPRP | 3.24 |
| RRIRQRPPRLPRPRPRPGASPRP | 0.326 |
| RRIRNRPPRLPRPRPRPHYSPRP | -0.363 |
| RRIRYRPPRLPRPRPRPWMVPRP | -0.523 |
| RRIRIRPPRLPRPRPRPCDLPRP | -0.011 |
| RRIRIRPPRLPRPRPRPSCRPRP | -0.644 |
| RRIRERPPRLPRPRPRPQIEPRP | -0.208 |
| RRIRERPPRLPRPRPRPGNTPRP | -0.089 |
| RRIRKRPPRLPRPRPRPYQDPRP | 0.0178 |
| RRIRDRPPRLPRPRPRPEKWPRP | -0.00325 |
| RRIRGRPPRLPRPRPRPVSTPRP | 0.691 |
| RRIRMRPPRLPRPRPRPHLRPRP | 0.0326 |
| RRIRRRPPRLPRPRPRPYFMPRP | -0.353 |
| RRIRKRPPRLPRPRPRPHLAPRP | 0.0615 |
| RRIRSRPPRLPRPRPRPYKTPRP | -0.0144 |
| RRIRSRPPRLPRPRPRPDICPRP | -0.0721 |
| RRIRPRPPRLPRPRPRPCIGPRP | 0.00708 |
| RRIRERPPRLPRPRPRPRLTPRP | -0.0882 |
| RRIRSRPPRLPRPRPRPPWKPRP | -0.0556 |
| RRIRKRPPRLPRPRPRPNWSPRP | 0.139 |
| RRIRNRPPRLPRPRPRPAYFPRP | -0.175 |
| RRIRFRPPRLPRPRPRPVFVPRP | -0.277 |
